The target in assay [1] is T1, soluble HLA-A2:PRAME (312-320) tetramer (human).
T1 construct: Commercial tetramer (MBL International); construct limits, biotin tag and streptavidin/fluorophore not described; also called PRAME/HLA tetramer reagent
The assay is described as follows: flow cytometry, soluble pMHC tetramer on CHO cells expressing the TCR.

Assay [2] addresses T2, PRAME peptide on HLA-A*02:01 (human).
T2 peptide: RLDQLLRHV
The assay is described as follows: multimer staining.

B1: PN46797 (TCR, V domains shown)
V domain 1: AQTVTQSQPEMSVQEAETVTLSCTYDTSENNYYLFWYKQPPSRQMILVIRQEAYKQQNATENRFSVNFQKAAKSFSLKISDSQLGDTAMYFCALMEYENKLVFGAGTILRVKS
V domain 2: DAGITQSPRYKITETGRQVTLMCHQTWSHSYMFWYRQDLGHGLRLIYYSAAADITDKGEVPDGYVVSRSKTENFPLTLESATRSQTSVYFCASSDGTGYYGYTFGSGTRLTVV
notes: stained with anti-mouse TCR constant region antibody H57-597) and full-length chains were expressed on CHO cells
Regarding B1, the “Cell Frequency ≥1000 MFI, ≥1% (% tetramer positive cells in the Ag+ gate)” value in assay [1] turned out to be 57.3%. Besides, the binding result in assay [2] is given as “recognises”.

B2: PN46738 (TCR, V domains shown)
V domain 1: AQTVTQSQPEMSVQEAETVTLSCTYDTSENNYYLFWYKQPPSRQMILVIRQEAYKQQNATENRFSVNFQKAAKSFSLKISDSQLGDTAMYFCAFGMYSGGGADGLTFGKGTHLIIQP
V domain 2: DAGITQSPRYKITETGRQVTLMCHQTWSHSYMFWYRQDLGHGLRLIYYSAAADITDKGEVPDGYVVSRSKTENFPLTLESATRSQTSVYFCASSDGTGYYGYTFGSGTRLTVV
notes: as for B1
As for B2, the “Cell Frequency ≥1000 MFI, ≥1% (% tetramer positive cells in the Ag+ gate)” value in assay [1] is 23%. Further, the binding result in assay [2] was “recognises”.

B3: PN46723 (TCR, V domains shown)
V domain 1: EDQVTQSPEALRLQEGESSSLNCSYTVSGLRGLFWYRQDPGKGPEFLFTLYSAGEEKEKERLKATLTKKESFLHITAPKPEDSATYLCAVQEDGGSQGNLIFGKGTKLSVKP
V domain 2: DAGVTQSPTHLIKTRGQQVTLRCSPISGHKSVSWYQQVLGQGPQFIFQYYEKEERGRGNFPDRFSARQFPNYSSELNVNALLLGDSALYLCASSRDINEKLFFGSGTQLSVL
notes: as for B1
Turning to B3, the “Cell Frequency ≥1000 MFI, ≥1% (% tetramer positive cells in the Ag+ gate)” value in assay [1] was determined as 72.5%. Further, the binding result in assay [2] is “recognises”.

B4: PN46678 (TCR, V domains shown)
V domain 1: AQKVTQAQPEISVVEKEDVTLDCVYETRDTTYYLFWYKQPPSGELVFLIRRNSFDEQNEISGRYSWNFQKSTSSFNFTITASQVVDSAVYFCALSEFDRGSTLGRLYFGRGTQLTVWP
V domain 2: DAGVTQSPTHLIKTRGQQVTLRCSPISGHKSVSWYQQVLGQGPQFIFQYYEKEERGRGNFPDRFSARQFPNYSSELNVNALLLGDSALYLCASSRDINEKLFFGSGTQLSVL
notes: as for B1
Turning to B4, the “Cell Frequency ≥1000 MFI, ≥1% (% tetramer positive cells in the Ag+ gate)” value in assay [1] is 11%. In assay [2], the binding result was “recognises”.

B5: PN46714 (TCR, V domains shown)
V domain 1: EDQVTQSPEALRLQEGESSSLNCSYTVSGLRGLFWYRQDPGKGPEFLFTLYSAGEEKEKERLKATLTKKESFLHITAPKPEDSATYLCAVQADGGSQGNLIFGKGTKLSVKP
V domain 2: DAGVTQSPTHLIKTRGQQVTLRCSPISGHKSVSWYQQVLGQGPQFIFQYYEKEERGRGNFPDRFSARQFPNYSSELNVNALLLGDSALYLCASSLDINSPLHFGNGTRLTVT
notes: as for B1
On to B5, for which the “Cell Frequency ≥1000 MFI, ≥1% (% tetramer positive cells in the Ag+ gate)” value in assay [1] turned out to be 62.1%. Moreover, the binding result in assay [2] is listed as “recognises”.

B6: PN46889 (TCR, V domains shown)
V domain 1: QKEVEQNSGPLSVPEGAIASLNCTYSDRGSQSFFWYRQYSGKSPELIMSIYSNGDKEDGRFTAQLNKASQYVSLLIRDSQPSDSATYLCAVNIPNSGYSTLTFGKGTMLLVSP
V domain 2: NAGVTQTPKFRVLKTGQSMTLLCAQDMNHEYMYWYRQDPGMGLRLIHYSVGEGTTAKGEVPDGYNVSRLKKQNFLLGLESAAPSQTSVYFCASSYWEGTEAFFGQGTRLTVV
notes: as for B1
Regarding B6, the “Cell Frequency ≥1000 MFI, ≥1% (% tetramer positive cells in the Ag+ gate)” value in assay [1] came out at 92.5%. Besides, the binding result in assay [2] was “recognises”.

B7: PN46735 (TCR, V domains shown)
V domain 1: DAKTTQPNSMESNEEEPVHLPCNHSTISGTDYIHWYRQLPSQGPEYVIHGLTSNVNNRMASLAIAEDRKSSTLILHRATLRDAAVYYCILREYMYSGGGADGLTFGKGTHLIIQP
V domain 2: DAGVTQSPTHLIKTRGQQVTLRCSPISGHKSVSWYQQVLGQGPQFIFQYYEKEERGRGNFPDRFSARQFPNYSSELNVNALLLGDSALYLCASSFQAGVNYGYTFGSGTRLTVV
notes: as for B1
For B7, the “Cell Frequency ≥1000 MFI, ≥1% (% tetramer positive cells in the Ag+ gate)” value in assay [1] worked out at 17.9%. Moreover, the binding result in assay [2] is reported as “recognises”.

B8: PN46914 (TCR, V domains shown)
V domain 1: AQKVTQAQPEISVVEKEDVTLDCVYETRDTTYYLFWYKQPPSGELVFLIRRNSFDEQNEISGRYSWNFQKSTSSFNFTITASQVVDSAVYFCALSEGYNQGGKLIFGQGTELSVKP
V domain 2: DVKVTQSSRYLVKRTGEKVFLECVQDMDHENMFWYRQDPGLGLRLIYFSYDVKMKEKGDIPEGYSVSREKKERFSLILESASTNQTSMYLCASGADSNQPQHFGDGTRLSIL
notes: as for B1
As for B8, the “Cell Frequency ≥1000 MFI, ≥1% (% tetramer positive cells in the Ag+ gate)” value in assay [1] stood at 11.5%. In assay [2], the binding result is reported as “recognises”.

B9: PN46733 (TCR, V domains shown)
V domain 1: GESVGLHLPTLSVQEGDNSIINCAYSNSASDYFIWYKQESGKGPQFIIDIRSNMDKRQGQRVTVLLNKTVKHLSLQIAATQPGDSAVYFCAENNYGQNFVFGPGTRLSVLP
V domain 2: NAGVTQTPKFQVLKTGQSMTLQCAQDMNHNSMYWYRQDPGMGLRLIYYSASEGTTDKGEVPNGYNVSRLNKREFSLRLESAAPSQTSVYFCASSDWGQGVEAFFGQGTRLTVV
notes: as for B1
For B9, in assay [1], the “Cell Frequency ≥1000 MFI, ≥1% (% tetramer positive cells in the Ag+ gate)” value was found to be 87.9%. The binding result in assay [2] is listed as “recognises”.

(Values after patent US20230060095A1 (Regeneron, published 2023).)
